Paper PMC8548718 (Frontiers in Molecular Biosciences, 2021)

Target: T1, PD1-Fc (UniProt Q15116)
T1 construct: PD-1 (programmed cell death protein 1); most likely the extracellular domain of human PD-1 on a human IgG Fc
Test: BLI; BLItz system; biotinylated 102c3 nanobody immobilised on SA2 biosensors, dipped in serial dilutions of PD1-Fc
Details: both partners purified

T1 sequence (Q15116 25-170): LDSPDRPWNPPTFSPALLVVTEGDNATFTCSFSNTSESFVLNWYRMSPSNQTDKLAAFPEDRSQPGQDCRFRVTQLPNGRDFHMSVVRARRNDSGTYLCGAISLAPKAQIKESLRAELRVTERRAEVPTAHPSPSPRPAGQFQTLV

binding result: binds
B1: nanobody 102c3 (anti-PD1 single-domain antibody, VHH), biotinylated (VHH)
VHH: EVQLVESGGGLVQAGKSLRLSCAASGSIFSIHAMGWFRQAPGKEREFVAAITWSGGITYYEDSVKGRFTISRDNAKNTVYLQMNSLKPEDTAIYYCAADRAESSWYDYWGQGTQVTVSS
notes: the whole synthesised fragment translates to MGSR...PQPDPSP; also called 102c3 nanobody; 102c3 VHH; source: E. coli BL21DE3-BirA, periplasm extract, purified (HIS Mag Sepharose Excel, dialysis against PBS); not shown: biotinylation signal, C-terminal, kept
